In paper PMC7873571:

Molecular target: Gli1 (from hisSUMO-Gli1, Addgene 87225, His-SUMO tag cleaved) (UniProt P08151 234-388)
Experiment: SPR

Sequence of Gli1 (from hisSUMO-Gli1, Addgene 87225, His-SUMO tag cleaved) (P08151 234-388): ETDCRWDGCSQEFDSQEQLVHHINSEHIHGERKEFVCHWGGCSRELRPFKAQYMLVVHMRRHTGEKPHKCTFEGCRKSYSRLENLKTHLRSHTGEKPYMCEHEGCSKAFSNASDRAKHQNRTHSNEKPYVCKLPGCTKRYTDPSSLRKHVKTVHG

B1: biotinylated GLI1 consensus dsDNA (SPR) (dsDNA)
DNA 1: ACGTGGACCACCCAAGACGAA
DNA 2: TTTCGTCTTGGGTGGTCCACGT
binding result: binds
